Source: PMC9543391, “ERp57 chaperon protein protects neuronal cells from Aβ‐induced toxicity” (Journal of Neurochemistry, 2022)
“Also recorded” adds a separate entry of the source.

How the values were obtained:
[1] = system: SH‐SY5Y cells; experiment: MTT cell viability assay; type: cell-based, human; settings: MTT, n = 4
Experimental: For the cell viability experiments, 96‐well plates were seeded with 10 000 cells/well. After 24 h, cells were treated with 30 μM Aβ25−35 aggregated for 72 h in the presence or in the absence of 0.12 μM of ERp57 or GST recombinant proteins (in a 1:250 ratio), in a final volume of 150 μl per well. Plates were incubated for 24 h in an incubator at 37°C, 5% of CO2, and 99% RH. Thereafter, 20 μl of (3‐[4,5‐Dimethylthiazol‐2‐yl]‐2,5‐Diphenyltetrazolium Bromide) (MTT) dye (stock solution 5 mg/ml in PBS) (catalog number #M2003) was added to the wells and incubated for additional 2 h at 37°C and 5% CO2. Water‐insoluble formazan crystals were dissolved in 100 μl of DMSO (catalog number #472301). For spectrophotometric measurements, Appliscan® plate reader (Thermo scientific) was used at the wavelength 570 nm, with reference set at 690 nm.

[2] = system: Aβ25−35; experiment: Thioflavin-T assay, Aβ25−35 aggregation (co-incubation); type: biochemical; settings: 1:250 protein/Aβ25−35 molar ratio (4 μM / 1 mM), up to 72 h, 4°C, ThT read at 485 nm, n = 6
Experimental: The amyloid peptide Aβ25−35 was synthesized by conventional solid‐phase chemistry (Atherton & Sheppard, [1990]), and stored at −20°C. The peptide was resuspended in 1,1,1,3,3,3‐Hexafluoro‐2‐propanol (Sigma®, catalog number #105228), incubated for 1 h with gentle shaking at 4°C, then aliquoted and dried in speedVac for 20 min. The aliquots were stored under a vacuum glass bell. The day before being used, aliquots were resuspended in phosphate‐buffered saline (PBS) at a final concentration of 1 mM, incubated in a ultrasonic bath on ice for 30 min to induce aggregation, followed by gentle shaking at 4°C overnight. Aβ25−35 was diluted in culture medium at a final concentration of 30 μM for cell treatments. Aggregation of Aβ25−35 in the presence of ERp57 was obtained as follows: dried aliquots of Aβ25−35 were resuspended in PBS. […]
Thioflavin‐T assay was used to assess the aggregation of the Aβ25−35. […] The assay was performed using a spectrofluorometer Spex Fluoromax® at 25°C; the excitation wavelength was set at 440 nm (5 nm band width) and the fluorescence was measured between 450 and 520 nm (5 nm band width) (Francioso et al., [2020]).

[3] = system: α‐synuclein; settings: 1:50 molar ratio; ref Serrano et al., [2020]; cited from earlier work
From the text: We thus hypothesize that the mechanism by which ERp57 exerts its neuroprotective action resides in ERp57 impairment of peptide aggregation, rather than in disaggregation of existing fibrils. The inhibition of the aggregation was induced by low amounts of ERp57 protein, present in the reaction mixture in a very low molar ratio compared to the peptide (1:250), in line with the experiments conducted by Serr ...

[4] = system: Aβ peptide; settings: cerebrospinal fluid of healthy people; ref Erickson et al., [2005]; cited from earlier work
From the text: ERp57 is an endoplasmic reticulum disulfide isomerase which modulates folding of newly synthesized glycoproteins by recognizing and interacting with peptides or incorrectly folded proteins, thereby promoting formation of disulfide bonds and correct protein folding (Torres et al., [2015]). Conversely, Aβ is a small peptide that, because of its intrinsic characteristics, tends to aggregate and to escape the ER‐associated degradation process (ERAD) (Holtzman, [2013]). Eventually, monomeric Aβ is released out of the cell and begins its slow aggregation into fibrils that will form the template for ...

[5] = system: pre‐aggregated Aβ25−35; experiment: Thioflavin-T assay, reversal of pre-aggregated Aβ25−35; type: biochemical; settings: Aβ25−35 aggregated alone 24 h, then 72 h with increasing concentrations of ERp57; n = 3
Experimental: Thioflavin‐T assay was used to assess the aggregation of the Aβ25−35. Thioflavin‐T (catalog number #T3516) was prepared in glycine buffer (0.05 M, pH 8.5) (catalog number #G8898), to a final concentration of 5 μM, in order to be saturated by Aβ25−35 (10 μM). Aβ25−35 was aggregated either alone or in the presence of 0.04 μM ERp57 or GST recombinant protein (in a 1:250 ratio). The assay was performed using a spectrofluorometer Spex Fluoromax® at 25°C; the excitation wavelength was set at 440 nm (5 nm band width) and the fluorescence was measured between 450 and 520 nm (5 nm band width) (Francioso et al., [2020]).
Having ascertained the ability of ERp57 to block the aggregation process, we wondered if the protein was able to reverse a preformed amyloid fibril into oligomeric/monomeric forms. To understand this, we aggregated Aβ25−35 alone for 24 h and then incubated it for 72 h in the presence of increasing concentrations of ERp57, assessing every 24 h the state of aggregation by thioflavin T assay (Figure 5c). […] Probably this phenomenon could be because of the fact that the presence of a protein capable of interacting with Aβ25−35 (given the previous experiments) can favor to the maintenance of Aβ25−35 in solution, facilitating the process of aggregation. […]

[6] = system: c99 fragment of APP; settings: c99 generated by β-secretase; ref Selivanova et al., [2007]; cited from earlier work
From the text: (§1) As previously reported (Williams, [2006]), it is known that ERp57 together with calreticulin and calnexin forms a complex capable of interacting with glycoproteins, including APP, at the […] level, and therefore it can be hypothesized that the contact regions between ERp57 and APP are maintained at least in part also by Aβ, despite the cuts suffered by the secretases.

[7] = system: full‐length APP; settings: permeabilized cells; ref Selivanova et al., [2007]; cited from earlier work
From the text: as §1

B1: ERp57: thiol oxidoreductase with Protein Disulfide Isomerase activity; human recombinant PDIA3 expressed in E. coli (protein)
chain: SDVLELTDDNFESRISDTGSAGLMLVEFFAPWCGHCKRLAPEYEAAATRLKGIVPLAKVDCTANTNTCNKYGVSGYPTLKIFRDGEEAGAYDGPRTADGIVSHLKKQAGPASVPLRTEEEFKKFISDKDASIVGFFDDSFSEAHSEFLKAASNLRDNYRFAHTNVESLVNEYDDNGEGIILFRPSHLTNKFEDKTVAYTEQKMTSGKIKKFIQENIFGICPHMTEDNKDLIQGKDLLIAYYDVDYEKNAKGSNYWRNRVMMVAKKFLDAGHKLNFAVASRKTFSHELSDFGLESTAGEIPVVAIRTAKGEKFVMQEEFSRDGKALERFLQDYFDGNLKRYLKSEPIPESNDGPVKVVVAENFDEIVNNENKDVLIEFYAPWCGHCKNLEPKYKELGEKLSKDPNIVIAKMDATANDVPSPYEVRGFPTIYFSPANKKLNPKKYEGGRELSDFISYLQREATNPPVIQEEKPKKKKKAQEDL
[1]; 30 μM Aβ25−35 aggregated 72 h with 0.12 μM protein (1:250), 24 h treatment
  cell viability (with Aβ25−35): counteracts the toxic effects of Aβ25−35 and restores cellular viability; also recorded: significant increase in cell viability; also recorded: their viability was preserved
[1]; protein alone, without Aβ25−35, 24 h
  cell viability (protein alone): no effect on cell viability
[2]
  effect on Aβ25−35 aggregation (ThT fluorescence): a marked reduction in the fluorescence signal; also recorded: completely blocks this process; also recorded: strongly reduced the aggregation of the peptide
[3]
  effect on α-synuclein aggregation: able to reduce the aggregation of α‐synuclein in a very efficient manner
[4]
  complex of ERp57 with Aβ: linked to Aβ in the cerebrospinal fluid of healthy people
[5]
  ThT fluorescence intensity of pre-aggregated Aβ25−35: increased in a dose‐dependent manner
  reversal of preformed amyloid: not able to reverse the amyloid aggregation; also recorded: not able to disassemble pre‐aggregated Aβ25−35; also recorded: fails to disaggregate a fibril
[6]
  interaction with c99 fragment of APP: does not interact with the c99 fragment of APP
[7]
  interaction with full-length APP: interacts with full‐length APP
